According to the RNAGym collection of RNA variant scans (doi:10.7554/elife.80360):

B1: Hammerhead Ribozyme (parent)
chain: ACCGGAUGUGCUUUCCGGUCUGAUGAGUCCGUGAGGACGAAACAG

Variants of: B1
Assay: self-cleavage, relative activity (ratio to wild type); higher = more cleavage; co-transcriptional

| Variant | self-cleavage |
| --- | --- |
| A1G U12A | 1.63 |
| A1G G39A | 0.384 |
| A1G G39C | 0.394 |
| A1G G39U | 0.428 |
| C2A C38A | 0.381 |
| C2A C38G | 0.373 |
| C2A C38U | 0.606 |
| A1U A42G | 0.351 |
| A1U A42U | 0.279 |
| A1U A42C | 0.395 |
| A1U C16U | 0.431 |
| A1U C16G | 0.459 |
| A1U C16A | 0.419 |
| C2A C43U | 0.308 |
| C2A C43G | 0.338 |
| C2A C43A | 0.333 |
| C2A C29U | 0.584 |
| C2A C29G | 0.378 |
| C2A C29A | 0.376 |
| A1G A41C | 0.461 |
| A1G A41G | 0.436 |
| A1G A41U | 0.42 |
| A1U U19G | 1.28 |
| A1U U19C | 0.617 |

| Variant | self-cleavage |
| --- | --- |
| A1U U19A | 1.1 |
| A1G C30A | 1.3 |
| A1G C30U | 1.84 |
| A1G C30G | 1.26 |
| A1U G33C | 0.705 |
| A1U G33A | 0.651 |
| A1U G33U | 0.972 |
| A1U U7A | 0.588 |
| A1U U7G | 0.603 |
| A1U U7C | 0.555 |
| C2A A23G | 0.334 |
| C2A A23C | 0.297 |
| C2A A23U | 0.33 |
| A1G G5A | 1.04 |
| A1G G5C | 0.628 |
| A1G G5U | 0.805 |
| A1G U32C | 1.48 |
| A1G U32G | 1.45 |
| A1G U32A | 1.68 |
| A1G U7C | 1.39 |
| A1G U7G | 1.4 |
| A1G U7A | 1.31 |
| A1U U24C | 0.726 |
| A1U U24G | 0.508 |

| Variant | self-cleavage |
| --- | --- |
| A1U U24A | 1.04 |
| A1G G35A | 1.23 |
| A1G G35C | 1.04 |
| A1G G35U | 0.947 |
| A1U U32C | 0.436 |
| A1U U32G | 0.465 |
| A1U U32A | 0.692 |
| A1G G22U | 0.408 |
| A1G G22C | 0.376 |
| A1G G22A | 0.384 |
| C2A C15A | 0.378 |
| C2A C15G | 0.319 |
| C2A C15U | 0.466 |
| A1G U19C | 2.02 |
| A1G U19A | 0.511 |
| A1G U19G | 0.61 |
| A1G C3U | 1.34 |
| A1G C3G | 0.586 |
| A1G C3A | 0.699 |
| A1U U14A | 0.353 |
| A1U U14C | 0.531 |
| A1U U14G | 0.692 |
| A1U A40C | 0.387 |
| A1U A40U | 0.349 |

| Variant | self-cleavage |
| --- | --- |
| A1U A40G | 0.383 |
| A1U G45U | 0.585 |
| A1U G45C | 0.493 |
| A1U G45A | 0.409 |
| A1U A44G | 0.971 |
| A1U A44C | 0.574 |
| A1U A44U | 0.425 |
| A1U C2U | 0.598 |
| A1U C2A | 0.672 |
| A1U C2G | 1.92 |
| C2A A42U | 0.332 |
| C2A A42C | 0.355 |
| C2A A42G | 0.344 |
| A1U U13C | 0.94 |
| A1U U13G | 0.812 |
| A1U U13A | 1.02 |
| A1G G8U | 1.65 |
| A1G G8A | 1.57 |
| A1G G8C | 1.47 |
| A1U C20U | 0.333 |
| A1U C20A | 0.37 |
| A1U C20G | 0.412 |
| A1G U9C | 1.8 |
| A1G U9G | 1.58 |

| Variant | self-cleavage |
| --- | --- |
| A1G U9A | 1.83 |
| A1G A34U | 1.47 |
| A1G A34C | 1.1 |
| A1G A34G | 1.5 |
| A1U G17C | 0.393 |
| A1U G17A | 0.421 |
| A1U G17U | 0.357 |
| C2A C3U | 0.312 |
| C2A C3A | 0.476 |
| C2A C3G | 0.277 |
| A1U | 0.853 |
| C2A A40U | 0.35 |
| C2A A40G | 0.324 |
| C2A A40C | 0.353 |
| A1U G18A | 0.477 |
| A1U G18U | 0.475 |
| A1U G18C | 0.39 |
| A1U G25C | 0.357 |
| A1U G25U | 0.435 |
| A1U G25A | 0.32 |
| A1G A40G | 0.388 |
| A1G A40U | 0.458 |
| A1G A40C | 0.691 |
| C2A A6C | 0.306 |

| Variant | self-cleavage |
| --- | --- |
| C2A A6U | 0.331 |
| C2A A6G | 0.426 |
| A1G U14A | 1.46 |
| A1G U14G | 1.85 |
| A1G U14C | 1.19 |
| A1U G31U | 0.748 |
| A1U G31C | 0.621 |
| A1U G31A | 1.03 |
| A1G G18A | 0.906 |
| A1G G18C | 0.58 |
| A1G G18U | 0.894 |
| A1U A6U | 0.46 |
| A1U A6G | 0.459 |
| A1U A6C | 0.363 |
| A1G G25A | 0.43 |
| A1G G25C | 0.319 |
| A1G G25U | 0.353 |
| A1G G4A | 0.521 |
| A1G G4C | 0.32 |
| A1G G4U | 0.693 |
| A1G U28C | 1.79 |
| A1G U28G | 1.33 |
| A1G U28A | 1.26 |
| A1U C11U | 0.423 |

| Variant | self-cleavage |
| --- | --- |
| A1U C11A | 1.01 |
| A1U C11G | 0.646 |
| A1G A37U | 1.02 |
| A1G A37G | 1.23 |
| A1G A37C | 1.64 |
| A1U A26C | 0.402 |
| A1U A26G | 0.34 |
| A1U A26U | 0.383 |
| A1U C38U | 0.583 |
| A1U C38A | 0.528 |
| A1U C38G | 0.33 |
| A1U C3A | 0.767 |
| A1U C3G | 0.418 |
| A1U C3U | 0.433 |
| A1G C20U | 0.971 |
| A1G C20A | 0.54 |
| A1G C20G | 0.358 |
| A1U C29U | 0.595 |
| A1U C29A | 0.435 |
| A1U C29G | 0.448 |
| A1U U21G | 0.303 |
| A1U U21A | 0.614 |
| A1U U21C | 0.379 |
